In patent US20240228604A1 (ALCHEMAB THERAPEUTICS, published 2024):

Key:
[1] = target: T1, UNC5C recombinant human antigen, Fc-tagged (R&D Systems, #1005-UN) (human, UniProt O95185 41-380, limits assumed); experiment: ELISA, antigen down
T1 construct: Bought protein; also called rhUNC5C; not shown: Fc tag of the bought protein

[2] = target: T2, full-length human UNC5D on fixed HEK293 cells (Retrogenix panel) (human, UniProt Q6UXZ4 33-953); experiment: Retrogenix cell microarray, fixed HEK293 cells
T2 construct: whole, on cells
T2 sequence (looked up): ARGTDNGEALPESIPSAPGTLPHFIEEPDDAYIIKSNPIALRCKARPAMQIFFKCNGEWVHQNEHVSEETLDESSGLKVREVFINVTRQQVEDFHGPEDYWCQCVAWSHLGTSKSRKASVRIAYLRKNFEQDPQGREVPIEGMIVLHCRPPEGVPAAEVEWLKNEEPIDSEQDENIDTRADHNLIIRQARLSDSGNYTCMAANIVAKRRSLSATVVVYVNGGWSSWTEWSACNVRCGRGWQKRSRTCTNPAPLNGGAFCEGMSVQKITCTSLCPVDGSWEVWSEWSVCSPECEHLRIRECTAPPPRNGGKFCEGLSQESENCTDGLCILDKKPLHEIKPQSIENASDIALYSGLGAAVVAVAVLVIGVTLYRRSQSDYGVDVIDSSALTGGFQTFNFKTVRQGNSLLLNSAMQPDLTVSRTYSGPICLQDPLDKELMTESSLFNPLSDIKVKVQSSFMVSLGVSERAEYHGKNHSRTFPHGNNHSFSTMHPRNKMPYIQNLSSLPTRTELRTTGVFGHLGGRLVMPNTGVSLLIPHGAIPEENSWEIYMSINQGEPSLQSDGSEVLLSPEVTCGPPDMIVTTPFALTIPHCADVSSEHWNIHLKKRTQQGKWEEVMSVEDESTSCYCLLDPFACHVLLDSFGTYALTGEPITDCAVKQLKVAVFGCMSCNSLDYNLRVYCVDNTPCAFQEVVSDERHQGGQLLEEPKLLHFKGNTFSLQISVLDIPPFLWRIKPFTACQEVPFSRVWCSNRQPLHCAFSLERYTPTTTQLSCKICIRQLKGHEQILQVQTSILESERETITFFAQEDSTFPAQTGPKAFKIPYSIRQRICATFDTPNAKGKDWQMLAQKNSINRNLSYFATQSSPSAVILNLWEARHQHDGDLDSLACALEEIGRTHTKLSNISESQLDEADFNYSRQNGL

[3] = target: T3, full-length human DCC on fixed HEK293 cells (Retrogenix panel) (human, UniProt P43146 26-1447); experiment: Retrogenix cell microarray, fixed HEK293 cells
T3 construct: whole, on cells
T3 sequence (P43146 26-1447): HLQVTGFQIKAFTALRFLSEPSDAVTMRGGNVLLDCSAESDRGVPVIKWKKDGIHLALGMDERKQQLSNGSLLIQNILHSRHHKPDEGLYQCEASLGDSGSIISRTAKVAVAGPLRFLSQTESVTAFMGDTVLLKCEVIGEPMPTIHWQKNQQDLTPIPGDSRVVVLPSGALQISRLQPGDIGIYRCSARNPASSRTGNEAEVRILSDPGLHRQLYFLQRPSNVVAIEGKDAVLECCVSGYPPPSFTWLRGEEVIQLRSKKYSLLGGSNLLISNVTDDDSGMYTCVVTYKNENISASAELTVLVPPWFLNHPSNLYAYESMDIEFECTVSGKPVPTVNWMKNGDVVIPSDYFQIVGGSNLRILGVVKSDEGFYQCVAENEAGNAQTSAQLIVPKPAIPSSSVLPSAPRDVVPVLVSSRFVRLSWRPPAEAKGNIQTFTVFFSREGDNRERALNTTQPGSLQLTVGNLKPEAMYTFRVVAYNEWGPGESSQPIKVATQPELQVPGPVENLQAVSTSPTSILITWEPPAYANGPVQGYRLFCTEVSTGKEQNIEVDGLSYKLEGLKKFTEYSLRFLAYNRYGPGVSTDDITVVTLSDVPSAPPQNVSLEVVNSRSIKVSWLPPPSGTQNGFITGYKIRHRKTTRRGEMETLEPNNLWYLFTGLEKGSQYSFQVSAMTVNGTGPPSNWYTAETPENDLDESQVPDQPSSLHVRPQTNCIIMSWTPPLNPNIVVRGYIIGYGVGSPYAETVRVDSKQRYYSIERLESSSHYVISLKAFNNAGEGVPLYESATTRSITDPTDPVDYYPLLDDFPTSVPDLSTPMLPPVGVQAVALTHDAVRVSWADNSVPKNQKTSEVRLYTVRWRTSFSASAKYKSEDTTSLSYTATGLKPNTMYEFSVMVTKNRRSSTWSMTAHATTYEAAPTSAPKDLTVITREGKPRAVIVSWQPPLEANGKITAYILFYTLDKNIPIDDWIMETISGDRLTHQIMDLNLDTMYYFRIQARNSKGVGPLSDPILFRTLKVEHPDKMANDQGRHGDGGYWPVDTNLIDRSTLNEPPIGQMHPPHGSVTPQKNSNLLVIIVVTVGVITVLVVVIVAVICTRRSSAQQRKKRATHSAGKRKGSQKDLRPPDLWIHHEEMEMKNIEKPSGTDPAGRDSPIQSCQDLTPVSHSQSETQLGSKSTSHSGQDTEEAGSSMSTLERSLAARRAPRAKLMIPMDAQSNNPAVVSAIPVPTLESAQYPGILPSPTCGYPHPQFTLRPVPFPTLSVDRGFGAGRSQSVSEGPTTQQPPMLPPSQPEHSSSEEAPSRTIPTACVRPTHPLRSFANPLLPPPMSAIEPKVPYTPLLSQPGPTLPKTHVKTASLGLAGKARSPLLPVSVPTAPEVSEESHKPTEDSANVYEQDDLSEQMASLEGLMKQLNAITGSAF

[4] = target: T4, full-length human DSCAM on fixed HEK293 cells (Retrogenix panel) (human, UniProt O60469 18-2012); experiment: Retrogenix cell microarray, fixed HEK293 cells
T4 construct: whole, on cells
T4 sequence (O60469 18-2012): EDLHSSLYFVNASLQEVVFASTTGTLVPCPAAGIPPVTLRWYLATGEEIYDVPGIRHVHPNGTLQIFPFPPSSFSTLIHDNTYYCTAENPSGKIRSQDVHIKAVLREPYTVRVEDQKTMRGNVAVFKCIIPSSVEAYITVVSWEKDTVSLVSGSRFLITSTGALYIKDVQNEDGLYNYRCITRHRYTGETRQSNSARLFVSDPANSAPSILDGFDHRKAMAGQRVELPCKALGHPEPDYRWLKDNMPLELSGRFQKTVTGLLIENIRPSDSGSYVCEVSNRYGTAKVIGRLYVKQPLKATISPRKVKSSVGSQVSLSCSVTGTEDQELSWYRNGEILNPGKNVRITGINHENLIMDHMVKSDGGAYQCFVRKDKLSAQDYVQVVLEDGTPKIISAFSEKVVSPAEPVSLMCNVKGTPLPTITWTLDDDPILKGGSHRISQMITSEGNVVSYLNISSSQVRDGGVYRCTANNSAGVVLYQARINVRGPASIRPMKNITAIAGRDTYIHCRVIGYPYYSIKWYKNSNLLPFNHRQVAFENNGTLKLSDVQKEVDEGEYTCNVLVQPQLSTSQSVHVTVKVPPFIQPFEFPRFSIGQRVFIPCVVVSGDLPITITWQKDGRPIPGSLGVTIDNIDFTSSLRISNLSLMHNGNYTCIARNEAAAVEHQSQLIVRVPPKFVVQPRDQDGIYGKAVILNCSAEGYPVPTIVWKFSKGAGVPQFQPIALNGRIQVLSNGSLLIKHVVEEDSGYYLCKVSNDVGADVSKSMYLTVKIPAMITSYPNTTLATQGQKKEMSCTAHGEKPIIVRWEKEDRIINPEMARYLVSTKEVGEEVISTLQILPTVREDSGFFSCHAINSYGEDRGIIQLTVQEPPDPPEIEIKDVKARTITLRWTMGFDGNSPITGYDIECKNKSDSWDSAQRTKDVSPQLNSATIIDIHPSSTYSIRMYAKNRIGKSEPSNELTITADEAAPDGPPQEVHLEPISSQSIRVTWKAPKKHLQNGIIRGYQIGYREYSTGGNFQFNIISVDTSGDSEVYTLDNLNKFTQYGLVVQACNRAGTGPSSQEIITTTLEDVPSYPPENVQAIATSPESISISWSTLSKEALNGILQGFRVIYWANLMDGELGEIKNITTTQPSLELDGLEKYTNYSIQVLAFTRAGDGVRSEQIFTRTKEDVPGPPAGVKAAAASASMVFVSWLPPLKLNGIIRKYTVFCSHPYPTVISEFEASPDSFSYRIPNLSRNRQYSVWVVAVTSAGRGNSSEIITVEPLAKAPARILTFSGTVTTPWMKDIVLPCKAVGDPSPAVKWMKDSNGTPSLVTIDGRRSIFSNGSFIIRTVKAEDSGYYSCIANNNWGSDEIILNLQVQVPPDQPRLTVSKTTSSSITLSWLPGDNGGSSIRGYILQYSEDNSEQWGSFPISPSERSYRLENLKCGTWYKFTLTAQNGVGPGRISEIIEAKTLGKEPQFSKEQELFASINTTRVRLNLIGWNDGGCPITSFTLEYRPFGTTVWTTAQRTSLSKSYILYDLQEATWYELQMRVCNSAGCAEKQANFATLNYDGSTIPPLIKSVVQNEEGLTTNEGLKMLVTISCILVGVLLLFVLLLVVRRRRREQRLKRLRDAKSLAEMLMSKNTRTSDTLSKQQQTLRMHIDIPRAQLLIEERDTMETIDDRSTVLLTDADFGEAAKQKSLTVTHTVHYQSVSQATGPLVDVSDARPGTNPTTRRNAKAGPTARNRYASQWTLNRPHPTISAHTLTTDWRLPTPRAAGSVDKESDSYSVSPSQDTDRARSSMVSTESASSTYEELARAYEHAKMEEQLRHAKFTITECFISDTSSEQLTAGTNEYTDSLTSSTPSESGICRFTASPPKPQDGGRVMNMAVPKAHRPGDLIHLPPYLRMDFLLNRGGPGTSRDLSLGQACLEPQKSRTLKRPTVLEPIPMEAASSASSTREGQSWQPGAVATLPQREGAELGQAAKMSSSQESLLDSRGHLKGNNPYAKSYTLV

[5] = target: T5, full-length human UNC5B on fixed HEK293 cells (Retrogenix panel) (human, UniProt Q8IZJ1 27-945); experiment: Retrogenix cell microarray, fixed HEK293 cells
T5 construct: whole, on cells

[6] = target: T6, full-length human UNC5A on fixed HEK293 cells (Retrogenix panel) (human, UniProt Q6ZN44 26-842); experiment: Retrogenix cell microarray, fixed HEK293 cells
T6 construct: whole, on cells
T6 sequence (looked up): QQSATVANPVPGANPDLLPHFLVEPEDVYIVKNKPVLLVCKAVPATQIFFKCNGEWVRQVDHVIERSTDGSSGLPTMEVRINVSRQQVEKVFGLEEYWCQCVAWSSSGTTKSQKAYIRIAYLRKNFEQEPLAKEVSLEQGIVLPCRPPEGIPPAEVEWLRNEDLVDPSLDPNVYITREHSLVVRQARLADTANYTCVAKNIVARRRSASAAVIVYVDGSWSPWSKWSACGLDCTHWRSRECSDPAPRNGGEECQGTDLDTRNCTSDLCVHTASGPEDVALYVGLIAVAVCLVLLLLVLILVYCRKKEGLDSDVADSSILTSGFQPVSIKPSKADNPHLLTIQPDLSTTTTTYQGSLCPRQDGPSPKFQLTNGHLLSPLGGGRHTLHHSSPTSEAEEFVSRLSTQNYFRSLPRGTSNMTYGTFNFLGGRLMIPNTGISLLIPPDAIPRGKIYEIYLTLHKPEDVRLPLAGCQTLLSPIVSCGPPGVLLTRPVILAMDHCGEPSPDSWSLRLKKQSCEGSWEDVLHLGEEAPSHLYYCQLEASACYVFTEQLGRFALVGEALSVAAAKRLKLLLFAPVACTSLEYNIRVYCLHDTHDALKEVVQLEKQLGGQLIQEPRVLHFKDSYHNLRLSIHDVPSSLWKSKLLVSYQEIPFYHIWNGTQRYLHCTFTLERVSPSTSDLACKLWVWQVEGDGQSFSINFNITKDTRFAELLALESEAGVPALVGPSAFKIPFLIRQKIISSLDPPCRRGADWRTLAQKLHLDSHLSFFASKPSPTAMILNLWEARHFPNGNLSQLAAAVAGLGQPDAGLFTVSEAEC

T1 sequence (O95185 41-380 limits assumed): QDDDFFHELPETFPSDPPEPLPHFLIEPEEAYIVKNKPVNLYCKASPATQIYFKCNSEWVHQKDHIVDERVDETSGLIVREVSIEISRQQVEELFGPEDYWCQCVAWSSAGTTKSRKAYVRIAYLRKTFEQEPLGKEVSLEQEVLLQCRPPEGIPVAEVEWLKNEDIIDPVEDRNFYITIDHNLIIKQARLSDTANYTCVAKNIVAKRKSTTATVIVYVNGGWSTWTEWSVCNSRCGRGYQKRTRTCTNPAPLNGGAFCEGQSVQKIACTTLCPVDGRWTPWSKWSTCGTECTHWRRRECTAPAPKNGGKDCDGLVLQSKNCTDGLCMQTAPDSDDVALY

B1: ATL_0006178 (antibody, IgG1, V domains shown)
VH: QVQLQESGPGLVKPSETLSLTCTVSGGSISSYFWSWIRQPPGKGLEWIGYIHYSGTTNQNPSLKSRVTISVDKSKNQFSLKLSSVTAADTAVYYCARGRGMATLPFDYWGQGTLVTVSS
VL: not shown
notes: Combination variant of ATL_5262 (T82K, Q67 kept, N58Y); also called ATL_6178; ATL6178
8 nM: EC50 [1]
no binding: binding result [2] | binding result [3] | binding result [4] | binding result [5] | binding result [6]
